The values that follow are results of earlier work, collected in patent publication US20220257789A1, “ANTI-TISSUE FACTOR ANTIBODY-DRUG CONJUGATES AND RELATED METHODS” (Iconic Therapeutics, Inc., priority 2019, published 2022).

Where two headings read alike, the source gives them in different places.

One data set addresses T1, mTF (Mus musculus, UniProt P20352).
T1 sequence (P20352 29-294): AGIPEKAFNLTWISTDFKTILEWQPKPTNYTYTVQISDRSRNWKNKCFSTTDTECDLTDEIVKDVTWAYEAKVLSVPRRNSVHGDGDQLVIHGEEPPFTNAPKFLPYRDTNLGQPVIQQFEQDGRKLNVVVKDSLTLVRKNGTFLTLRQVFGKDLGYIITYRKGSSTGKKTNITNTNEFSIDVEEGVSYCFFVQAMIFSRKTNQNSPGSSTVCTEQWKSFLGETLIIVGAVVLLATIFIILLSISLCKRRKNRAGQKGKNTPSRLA
The following applies: binds when a KD value can be measured on a ForteBio Octet.

As for “humanized 5G9: humanized 5G9 anti-TF antibody described in Ngo et al., 2007; VH SEQ ID NO: 830, VL SEQ ID NO: 831”, in the data set with mTF, the “binding to mouse TF” value is recorded as “do not bind to mouse TF”.
Take “tisotumab vedotin: anti-TF fully human monoclonal antibody conjugated to MMAE with a protease-cleavable linker (Genmab)”: under “6 mg/kg”, the dose limiting toxicities entry is “grade 4 neutropenia and severe skin irritation and skin ulceration”. Further, the toxicity result is, setting by setting: (dose of 2.2 mg/kg (de Bono et al. 2019)) “dose limiting toxicity (e.g., neutropenia)”; (dose of 3 mg/kg) “Neutropenia and skin toxicity”. Besides, the “ALT and AST” value (in vivo) was “transient ALT and AST elevations”.
